Experimental data from patent US9371393B2, “Class I anti-CEA antibodies and uses thereof” (Immunomedics, Inc., priority 2009, dated 2016).

B1: MN-15: murine Class I anti-CEA MAb, IgG1 kappa, binds A1B1 domain of CEACAM5 and CEACAM6 (antibody, V domains shown)
VL: DIQLTQSPAIMSASPGEKVTMTCSASSRVSYIHWYQQKSGTSPKRWIYGTSTLASGVPARFSGSGSGTSYSLTISSMEAEDAATYYCQQWSYNPPTFGAGTKLELKR
VH: EVRLVESGGGLVQGPGSLRLSCAASGFALTDYYMSWVRQSPGKTLEWLGFIANKANGHTTDYSPSVKGRFTISRDNSQTILYLQMNTLRTEDSATYYCARDMGIRWNFDVWGQGTTVTVSS
B2: MN-15 Fab′: monovalent Fab′ fragment of murine MN-15 (antibody, V domains shown)
VL: B1 VL
VH: B1 VH

Assays:
[1] = test system: LS174T cells; assay: Spontaneous migration (wound-healing) assay, LS174T; assay type: cell-based, human; set-up: dose or concentration left out as unconfirmed; settings: antibody, 18 to 24 hours, untreated 38.8±10.9
Experimental: (§1) Spontaneous migration assay—Glass coverslips were placed in 100×15 mm Petri dishes and UV sterilized overnight. Suspensions of cancer cells (2-4×10^5 cells/mol) were prepared from 80% to 90% confluent monolayers. Cells were plated on each coverslip and incubated for 2 to 5 days to reach 70% to 80% confluence. Two diagonal cell-free paths (“wounds”) were created by dragging a sterile yellow pipette tip across the surface. Monolayers were rinsed several times to remove floating cells and 4 mol of fresh medium were added back in the absence or presence of antibody IgG or Fab′ (10 μg/mol) and incubated at 37° C. After 18 to 24 hours, the medium was removed and coverslips stained with 1 mol Wright-Giemsa for 1 minute. The stain was washed off with distilled water, air-dried, and mounted onto slides with Cytoseal 60. Repopulation of the wound space was evaluated by counting the number of cells that migrated into the wound area in 10 representative fields. Regions of migration were photographed for documentation.

[2] = test system: HT-29 cells; assay: Spontaneous migration (wound-healing) assay, HT-29; assay type: cell-based, human; set-up: dose or concentration left out as unconfirmed; settings: antibody, 18 to 24 hours, untreated 14.9±9.1, n=10
Experimental: as §1

[3] = test system: MDA-231 cells; assay: Collagen-based invasion assay, MDA-231; assay type: cell-based, human; settings: MDA-231, expresses neither antigen
Experimental: (§2) Collagen-based invasion assay—The assay was done using CHEMICON® Kit (#ECM551, MILLIPORE®, Billerica, Mass.). Tumor cells at 80% confluence and were serum-starved for 18 to 24 hours before the assay was used. Cells were harvested with 5 mol of 2 mmol/L EDTA/PBS per 100-mm dish and incubated at 37° C. for 5 to 15 minutes. Cells were collected into 10 to 20 mol of quenching medium (serum-free DMEM containing 5% BSA) to inactivate trypsin/EDTA from the harvesting buffer. Cells were pelleted, resuspended in quenching medium (1×10^6 cells/mol), and appropriate antibody Fabs were added to individual cell aliquots. Cell invasion potential was determined as follows. Baseline invasion and invasion in the presence of a chemoattractant (10% FBS) were measured after a 72-hour incubation period at 37° C. in a 5% CO2 incubator. The bottom side of the collagen-coated polycarbonate membrane insert of the invasion chamber was placed in 400 μL of cell stain for 20 minutes at room temperature and washed. The dye was extracted and transferred into a 96-well microtiter plate for colorimetric measurements (A560 nm).

[4] = test system: BXPC3 cells; assay: Collagen-based invasion assay, BXPC3; assay type: cell-based, human; settings: 10% FBS chemoattractant, 72-hour incubation
Experimental: as §2

[5] = test system: tumor cell adhesion to ECM proteins (fibronectin, vitronectin, laminin, collagen-I, collagen-IV); assay: Adhesion to extracellular matrix proteins assay, panel of six cell lines; assay type: cell-based, human
Experimental: Adhesion to extracellular matrix proteins assay—The assay was done using the CYTOMATRIX™ screening kit from CHEMICON® (Kit #ECM205, Temecula, Calif.). The kit contains 96-well plates with strips coated with fibronectin, vitronectin, laminin, collagen-I, or collagen-IV. Subconfluent cell cultures were used for these studies. Cells (1×10^6 cells/mol) were seeded onto coated substrate and incubated at 37° C. for 1 hour in a CO2 incubator in PBS containing Ca^2+/Mg^2+ (200 μL per well). Adherent cells were fixed and stained. The plate was washed to remove unadhered cells and stained with 100 μL per well of MTS (Cell Titer Aq 96, PROMEGA®, Madison, Wis.) for 5 minutes at room temperature. Excess stain was removed with three PBS washes. Solubilization buffer [100 μL of a 50:50 mixture of 0.1 mol/L NaH2PO4 (pH 4.5) and 50% ethanol] was added to each well. Relative attachment was determined using absorbance readings (A540 nm-A570 nm).

[6] = test system: HT-29 cells adhesion to HUVEC; assay: Endothelial cell adhesion assay, HT-29; assay type: cell-based, human
Experimental: Endothelial cell adhesion assay—Human umbilical vein endothelial cells (HUVEC; Cambrex, San Diego, Calif.) were grown in collagen-coated dishes in EGM Media in a humidified atmosphere with 5% CO2 at 37° C. At passages 2 to 5, cells were plated at a density of 4×10^4 cells per well in 96-well plates 24 hours before the assay. Interleukin-1β (IL-1β, 1 ng/mol) was added 4 hours before the assay. At the start of the study, the medium with the IL-1β was removed and fresh DMEM with 1% bovine serum albumin (BSA) added and incubated for 30 minutes. Fresh medium without antibodies or with 10 μg/mol of MN-15 Fab′, MN-3 Fab′, or Ag8 Fab′ was added. Tumor cells (1×10^6 cells/mol) prelabeled overnight with ^3H-thymidine (100 μL per well using 1.0 μCi/mL) were added to HUVEC cultures and incubated for 30 minutes at 37° C. with rotation in medium with 20% FBS. Samples were washed thrice with PBS to remove unattached cells. Attached cells were solubilized with 0.1 N NaOH and radioactivity was measured in a β scintillation counter. The cpm attached/total cpm added (attaching potential) was determined.

[7] = test system: MCA38cea (human CEA-transfected line) adhesion to HUVEC; assay: Endothelial cell adhesion assay, MCA38cea; assay type: cell-based, murine; settings: without antibody 11.68±0.77%
Experimental: Percentage adhesion of various tumor cells with varying amounts of expressed CEACAM5 and CEACAM6 to HUVEC cells in the absence or presence of MN-15 Fab′, MN-3 Fab′, or Ag8 Fab′ control. Cells were labeled with 1 μCi/mL of ^3H-thymidine and added to HUVEC cultures and incubated for 30 minutes at 37° C. Samples were washed thrice with PBS to remove unattached cells. Attached tumor cells were solubilized with 0.1 N NaOH and radioactivity was measured in a B-scintillation counter. The cpm attached/total cpm added (attaching potential) was determined. Results of a typical study are presented. Cell lines used include BT-20 (CEACAM5+/CEACAM6+), MCF-7 (CEACAM5−/CEACAM6+), HT-29 (CEACAM5−/CEACAM6+), Moser (CEACAM5+/CEACAM6−), MCA38cea (CEACAM5+/CEACAM6−), and MCA38 (CEACAM5−/CEACAM6−).
Endothelial cell adhesion assay—Human umbilical vein endothelial cells (HUVEC; Cambrex, San Diego, Calif.) were grown in collagen-coated dishes in EGM Media in a humidified atmosphere with 5% CO2 at 37° C. At passages 2 to 5, cells were plated at a density of 4×10^4 cells per well in 96-well plates 24 hours before the assay. Interleukin-1β (IL-1β, 1 ng/mol) was added 4 hours before the assay. […] Attached cells were solubilized with 0.1 N NaOH and radioactivity was measured in a β scintillation counter. The cpm attached/total cpm added (attaching potential) was determined.

Molecule | migrating cells per field [1] [cells] | number of migrating cells per field [2] [cells] | effect on invasion [3] | reduction in cell invasion [4] [%] | effect on adhesion to fibronectin [5] | decrease in adhesion [6] [%] | endothelial cell binding [7] [%]
B1 | 20.3±0.1 | 5.5±1.8 | not reduced | – | – | – | –
B2 | 21.6±1.2 | 5.4±0.8 | not reduced | 44 | induced a decrease in adhesion of three of six cell lines | 48 | 5.53±1.15
